Data published in paper PMC8017925, “Structural basis for differential recognition of phosphohistidine-containing peptides by 1-pHis and 3-pHis monoclonal antibodies” (Proceedings of the National Academy of Sciences of the …, 2021).

System: ACLYana-3-pHis peptide (AGAG-3-pHis-AGAG)
Test: BLI binding kinetics of 3-pHis Fabs with affinity-purified pHis peptide
Procedure: Biolayer interferometry (BLI) studies were performed to determine the relative affinity of pHis Fabs to in situ phosphorylated His peptides versus the phosphomimetic substrates. The N-terminally biotinylated peptides were immobilized on streptavidin biosensors and the rate of association (ka) and dissociation (kd) were determined by varying the pHis Fab concentration. Equilibrium dissociation constants (KD) were determined by fitting the experimental data to a 1:1 Langmuir binding model. ACLYana-1-pTza and ACLYana-3-pTza peptides were used to determine affinity to 1-pHis and 3-pHis Fabs, respectively (Fig. 3 A–E and Table 1). […] The two isomers were separated from each other by passing the reaction through affinity columns containing 1-pHis mAbs using SC1-1 or SC50-3 IgGs or 3-pHis mAbs using SC39-4, SC44-8, and SC56-2 IgGs. The eluates thus contained either predominantly 1-pHis or 3-pHis peptides. These peptides were used to determine the affinity to their respective isomer class of pHis Fabs (Fig. 3 F–J, Table 1, and SI Appendix, Fig. S5). […] This experimental observation is well supported by the higher number of hydrogen bonds that support the SC44-8:3-pTza interaction compared to other pHis Fabs (SI Appendix, Table S5). […] There are at least three reasons for the lower affinity of the mAbs for pHis peptides compared to pTza peptides: The continuous hydrolysis of phosphate from the pHis peptides during the course of the experiment (SI Appendix, Fig. S6), a reduction in the number of hydrogen bond interactions due to one less nitrogen in the imidazole ring compared to triazolyl ring (Fig. 4 and SI Appendix, Fig. S8), and inherently different electronic properties of the imidazole and triazolyl rings in His and Tza, respectively ([20]).
Fig. 3. Binding kinetics of pHis Fabs with cognate pTza and pHis peptides. BLI studies of immobilized peptides (ACLYana-1/3-pTza and phosphorylated ACLYana) with varying concentrations of the pHis Fabs were carried out in triplicate on an Octet Red96e instrument (FortéBio). SC1-1 (A) and SC50-3 (B) pHis Fab interaction with their ACLYana-1-pTza peptides. SC39-4 (C), SC44-8 (D), and SC56-2 (E) pHis Fabs interactions with ACLYana-3-pTza peptides. SC1-1 (F), SC50-3 (G), SC39-4 (H), SC44-8 (I), and SC56-2 (J) pHis Fabs interactions with their affinity-purified ACLYana-pHis peptides are represented, Right. The experimental data are represented in the black dashed lines and the nonlinear least-squares fitting was represented in the red continuous lines. The χ^2 for the goodness of fit is under 1.0 for the all the plots.
The binding kinetics of pHis Fabs with the peptides (pTza and pHis) were evaluated with an Octet RED96e (FortéBio). Streptavidin-coated biosensors (FortéBio) were presoaked in buffer containing 50 mM Hepes pH 8.0, 150 mM NaCl, 0.05% Tween-20, and 0.2% BSA for 15 min. The biotinylated pTza peptides or pHis peptides (20 nM) with and without phosphoramidate treatment were coated onto these streptavidin biosensors and analyzed for their binding to varying concentrations of the pHis Fabs with an association time of 120 s and dissociation time of 200 s. The entire set of experiments was repeated three times. The data were analyzed using the Octet software (FortéBio) and the rates of association and dissociation were obtained by global fitting data to the 1:1 Langmuir interaction model. […]
Peptides used in the DSF and BLI experiments were synthesized by the Salk Peptide Synthesis Core. These peptides were N-terminally biotinylated and C-terminally amidated. They were synthesized using standard Fmoc chemistry on a Gyros Protein Technologies Tribute peptide synthesizer with UV monitoring. Following the deprotection, peptides were analyzed by mass spectrometry and analytical HPLC by the Proteomics Core at Salk. The peptides were HPLC purified to 99% purity by 21st Century Biochemicals, Inc. The Fmoc-pTza’s were synthesized at 10 g scale for incorporation into the peptides. […]

[1] = BLI, affinity-purified ACLYana-3-pHis peptide, 1:1 Langmuir global fit, triplicate

- ka [1]: 93600 ± 319 M⁻¹ s⁻¹
- kd [1]: 0.0017 ± 3.32e-06 s⁻¹
- Kd (BLI, ACLYana phosphorylated with phosphoramidate (8 h, 23 °C), 3-pHis isomer affinity-purified on 3-pHis IgG column, immobilized on streptavidin biosensors, Hepes pH 8.0, 1:1 Langmuir global fit, triplicate): 18.2 nM
- BLI signal (maximum) with ACLYana (phosphorylated ACLYana, GpHAGAG motif): 2.0 nm
- affinity for 3-pHis peptides, times (fold) weaker than for the 3-pTza peptide (ratio of BLI KD, 3-pHis versus 3-pTza peptide): 75 times
B1: SC44-8: Fab of rabbit 3-pHis-specific monoclonal antibody with proclivity for GpHAGA motif (antibody, V domains shown)
VH: QSVKESGRGLVQPGGSLTLTCTASGFSIDSYGFSWVRQAPGKGLEHIGYLTAGGRAFYASWAKSRSTITRNTNENTVTLKMTSLTAADTATYFCAKLGSGNPVAIWGPGTLVTVSS
VL: QVLTQTPSFTSAAVGGTVTINCQSSQSVWRNKNLAWYQQKPGQPPKRLIYAIATLDSGVPSRFSGSGSGTQFTLTISDVQCDDAATYYCVGHYGSENDAYYAFGGGTEVVVK
